According to paper PMC4357707 (Nucleic Acids Research, 2015):

Experiments:
HEN1 wt = biological target: T1, HEN1 wt (Arabidopsis thaliana, UniProt Q9C5Q8 1-942); test: EMSA
T1 sequence: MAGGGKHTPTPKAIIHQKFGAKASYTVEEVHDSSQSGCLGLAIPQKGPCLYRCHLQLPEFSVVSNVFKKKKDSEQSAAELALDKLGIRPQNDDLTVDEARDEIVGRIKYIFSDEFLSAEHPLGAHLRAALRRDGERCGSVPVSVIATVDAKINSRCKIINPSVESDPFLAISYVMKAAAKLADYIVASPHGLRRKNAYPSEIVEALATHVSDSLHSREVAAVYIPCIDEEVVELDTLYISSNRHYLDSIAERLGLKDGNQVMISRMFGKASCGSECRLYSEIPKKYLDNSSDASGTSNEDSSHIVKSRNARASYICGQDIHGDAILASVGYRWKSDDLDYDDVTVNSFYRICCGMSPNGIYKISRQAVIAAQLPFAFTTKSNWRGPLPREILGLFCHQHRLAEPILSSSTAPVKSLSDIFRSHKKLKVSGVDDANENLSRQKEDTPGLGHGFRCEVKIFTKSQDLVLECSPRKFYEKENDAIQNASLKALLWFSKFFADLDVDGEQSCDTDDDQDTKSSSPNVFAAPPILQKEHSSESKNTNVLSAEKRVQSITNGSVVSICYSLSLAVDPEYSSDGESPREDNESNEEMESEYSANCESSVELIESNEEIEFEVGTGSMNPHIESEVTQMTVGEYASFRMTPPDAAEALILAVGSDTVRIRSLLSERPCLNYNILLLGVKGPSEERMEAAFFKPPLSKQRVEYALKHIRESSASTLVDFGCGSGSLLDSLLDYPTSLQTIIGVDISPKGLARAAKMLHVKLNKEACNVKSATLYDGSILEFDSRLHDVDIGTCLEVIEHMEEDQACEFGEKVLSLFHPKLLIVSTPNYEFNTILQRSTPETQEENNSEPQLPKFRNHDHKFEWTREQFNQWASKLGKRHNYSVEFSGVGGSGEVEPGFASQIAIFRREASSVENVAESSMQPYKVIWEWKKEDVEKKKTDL

HEN1-RHK389,397,477AAA = biological target: T2, HEN1-RHK389,397,477AAA (Arabidopsis thaliana, UniProt Q9C5Q8 1-942, R389A;H397A;K477A); test: EMSA
T2 sequence: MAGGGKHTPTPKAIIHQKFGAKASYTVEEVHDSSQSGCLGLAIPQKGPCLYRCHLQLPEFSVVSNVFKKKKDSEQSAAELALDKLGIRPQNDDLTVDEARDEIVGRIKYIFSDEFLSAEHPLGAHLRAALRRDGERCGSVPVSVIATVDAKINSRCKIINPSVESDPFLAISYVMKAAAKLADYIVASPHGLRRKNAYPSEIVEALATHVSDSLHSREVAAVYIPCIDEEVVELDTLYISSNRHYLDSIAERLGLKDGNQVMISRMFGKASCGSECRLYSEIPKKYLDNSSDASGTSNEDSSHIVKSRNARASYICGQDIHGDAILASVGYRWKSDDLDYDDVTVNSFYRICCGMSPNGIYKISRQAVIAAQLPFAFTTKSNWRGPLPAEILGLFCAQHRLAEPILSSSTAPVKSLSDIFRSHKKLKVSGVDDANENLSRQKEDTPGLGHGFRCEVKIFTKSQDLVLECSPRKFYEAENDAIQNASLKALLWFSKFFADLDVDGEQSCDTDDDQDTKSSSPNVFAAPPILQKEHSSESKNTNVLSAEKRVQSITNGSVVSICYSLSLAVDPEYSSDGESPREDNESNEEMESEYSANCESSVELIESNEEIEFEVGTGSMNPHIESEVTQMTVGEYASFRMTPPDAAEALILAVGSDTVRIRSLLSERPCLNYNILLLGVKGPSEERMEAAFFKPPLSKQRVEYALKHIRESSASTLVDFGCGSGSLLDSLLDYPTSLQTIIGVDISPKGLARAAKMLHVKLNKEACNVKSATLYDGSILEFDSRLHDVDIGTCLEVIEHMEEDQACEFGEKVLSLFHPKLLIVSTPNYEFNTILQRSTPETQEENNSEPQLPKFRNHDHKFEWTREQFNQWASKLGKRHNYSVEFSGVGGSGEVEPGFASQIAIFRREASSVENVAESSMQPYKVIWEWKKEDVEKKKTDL

B1: miR173/miR173* (dsRNA)
RNA 1: UUCGCUUGCAGAGAGAAAUCAC
RNA 2: GAUUCUCUGUGUAAGCGAAAG
With B1 as the binder, how does the Kd (HEN1 wt) read?
The Kd was 0.32 ± 0.03 nM.

What about the Kd (HEN1-RHK389,397,477AAA) of the same binder?
Its Kd is 302 ± 29 nM.
